Experimental data as given in patent US20050196808A1 (published 2005).
Non-standard residues stand in square brackets, D forms with d. No end group written: not given here. pY = N[C@@H](Cc1ccc(OP(=O)(O)O)cc1)C(=O)O; pT = C[C@@H](OP(=O)(O)O)[C@H](N)C(=O)O

What was measured:
[1] = target: Plk-1 Polo-box Domain (PBD, residues 326-603) (human) (UniProt P53350); test: isothermal titration calorimetry [table]
[2] = target: BRCTtide-7pS, GAAYDI-pS-…; test: ITC, peptide injected into 15 µM GST-(BRCT)2
[3] = target: BRCTtide-7pT, GAAYDI-pT-…; test: ITC, peptide injected into 15 µM GST-(BRCT)2
[4] = target: Plk-1 Polo-box Domain (PBD, residues 326-603) (human) (UniProt P53350); test: isothermal titration calorimetry
[5] = target: PoloBoxtide with phosphoserine substituted for phosphothreonine; test: ITC
[6] = target: PoloBoxtide with Asn substituted for Pro at pThr+1; test: ITC
[7] = target: PoloBoxtide-optimal, MAGPMQ-S-pT-P-LNGAKK; test: isothermal titration calorimetry (ITC), peptide injected into 15 µM PBD
[8] = target: T1, Plk-1 Polo-box Domain (PBD, residues 326-603) (human, UniProt P53350 326-603); test: isothermal titration calorimetry [table]
T1 construct: also called Plk-1 PBD; Plk1 PBD
Experimental: (§1) Some peptides contained an additional tyrosine residue to facilitate concentration determination by optical absorbance. Calorimetry measurements were performed using a VP-ITC microcalorimeter (MicroCal Inc., Studio City, Calif.). […] Thirty injections were performed with a spacing of 240 s and a reference power of 25 μCal/s. Binding isotherms were plotted and analyzed using Origin Software (MicroCal Inc. Studio City, Calif.).

[9] = target: T1, Plk-1 Polo-box Domain (PBD, residues …); test: isothermal titration calorimetry [ITC panels]
Experimental: as §1

[10] = target: T2, Cdc25C, mitotically phosphorylated (up-shifted) form, endogenous in nocodazole-arrested HeLa cells (human, UniProt P30307 1-473, limits assumed, extensively phosphorylated at the N-terminus in mitosis, including phosphothreonine at 130); test: Ni2+ bead pull-down from nocodazole-arrested transfected HeLa cells, blot α-Cdc25
T2 construct: also called mitotically up-shifted form of Cdc25C; mitotically phosphorylated Cdc25C
T2 sequence (looked up): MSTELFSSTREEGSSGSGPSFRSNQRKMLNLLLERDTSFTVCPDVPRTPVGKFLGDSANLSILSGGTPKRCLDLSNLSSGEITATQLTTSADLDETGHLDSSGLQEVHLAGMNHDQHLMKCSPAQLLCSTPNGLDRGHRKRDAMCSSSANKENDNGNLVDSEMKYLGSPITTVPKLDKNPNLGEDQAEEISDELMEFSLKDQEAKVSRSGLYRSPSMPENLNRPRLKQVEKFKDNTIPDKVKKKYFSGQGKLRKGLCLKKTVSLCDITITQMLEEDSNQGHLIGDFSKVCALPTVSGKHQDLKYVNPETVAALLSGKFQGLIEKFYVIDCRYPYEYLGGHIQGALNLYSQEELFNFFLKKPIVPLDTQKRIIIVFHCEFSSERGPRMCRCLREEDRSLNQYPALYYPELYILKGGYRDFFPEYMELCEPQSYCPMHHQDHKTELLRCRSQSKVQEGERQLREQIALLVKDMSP

“PoloBoxtide with Asn substituted for Pro at pThr+1 (peptide)” gave a Kd [1] of 1500 nM.

Work on “PoloBoxtide with phosphoserine substituted for phosphothreonine (peptide)” yielded a Kd [1] of 2100 nM.

“GST-BRCA1 tandem BRCT domains (residues 1634-1863) (from UniProt P38398 1634-1863)” was tested, and the Kd [2] was 400 nM.

With “GST-PTIP tandem BRCT domains (residues 550-757) (from UniProt Q6ZW49 862-1069)” the Kd [2] was 280 nM and the Kd [3] was 14300 nM.

Work on “PoloBoxtide-optimal, MAGPMQ-S-pT-P-LNGAKK (peptide)” yielded a Kd [1] of 280 nM and a Kd [4] of 280 nM.

“Plk-1 Polo-box Domain (PBD, residues 326-603) (from UniProt P53350 326-603)” gave a fold drop in affinity against PoloBoxtide-optimal [5] of 7 fold, a fold increase in Kd against PoloBoxtide-optimal [6] greater than 5 fold and a Kd [7] of 280 nM.

B1: PoloBoxtide with Ser at pThr-1 replaced with Ala (peptide)
peptide: MAGPMQA[pT]PLNGAKK
B1: no binding (tested: 150 µM Plk-1 PBD) [8].

B2: PoloBoxtide with Ser at pThr-1 replaced with Cys (peptide)
peptide: MAGPMQC[pT]PLNGAKK
B2: no binding (tested: 150 µM Plk-1 PBD) [8].

B3: PoloBoxtide-7V (peptide)
peptide: MAGPMQV[pT]PLNGAKK
notes: also called phosphopeptide whose serine at pThr-1 was mutated to valine
B3: no binding (tested: molar ratio about 2.7) [9].

B4: PoloBoxtide with Ser at pThr-1 replaced with Gly (peptide)
peptide: MAGPMQG[pT]PLNGAKK
B4: no binding (tested: 150 µM Plk-1 PBD) [8].

B5: PoloBoxtide with phosphotyrosine substituted for phosphothreonine (peptide)
peptide: MAGPMQS[pY]PLNGAKK
notes: built from the optimal peptide
B5: no binding (tested: 150 µM Plk-1 PBD) [8].

B6: PoloBoxtide with Ser at pThr-1 replaced with Thr (peptide)
peptide: MAGPMQT[pT]PLNGAKK
B6: no binding (tested: 150 µM Plk-1 PBD) [8].

B7: His-Xpress-tagged control Plk1 PBD construct lacking the second Polo-box (residues 326-506) (other)
chain: SIAPSSLDPSNRKPLTVLNKGLENPLPERPREKEEPVVRETGEVVDCHLSDMLQQLHSVNASKPSERGLVRQEEAEDPACIPIFWVSKWVDYSDKYGLGYQLCDNSVGVLFNDSTRLILYNDGDSLQYIERDGTESYLTVSSHPNSLMKKITLLKYFRNYMSEHLLKAGANITPREGDELA
notes: not shown: His-Xpress tag
B7: no binding [10].
